How the values were obtained:
[1] = molecular target: T1, Z Alpha-1 Antitrypsin (Z-AAT) (human, UniProt P01009 25-418); assay: BLI (Octet): antibody from hybridoma supernatant loaded on the biosensor at 15ug/mL, ZAAT 500nM in HEPES buffer, association 300.81 s, dissociation 800.02 s, one concentration; Full R^2 0.7794
T1 construct: In the assays the protein was Z-AAT purified from plasma of Pi*ZZ patients, or Z-AAT in Z/Z plasma; also called Z-variant of alpha-1 antitrypsin; Z-AAT protein variant

[2] = molecular target: T1, Z Alpha-1 Antitrypsin (Z-AAT); assay: BLI (Octet): antibody from hybridoma supernatant loaded on the biosensor at 15ug/mL, ZAAT 500nM in HEPES buffer, association 300.81 s, dissociation 800.02 s, one concentration; column head kdis(1/s); Full R^2 0.7794

T1 sequence (P01009 25-418 E366K limits assumed): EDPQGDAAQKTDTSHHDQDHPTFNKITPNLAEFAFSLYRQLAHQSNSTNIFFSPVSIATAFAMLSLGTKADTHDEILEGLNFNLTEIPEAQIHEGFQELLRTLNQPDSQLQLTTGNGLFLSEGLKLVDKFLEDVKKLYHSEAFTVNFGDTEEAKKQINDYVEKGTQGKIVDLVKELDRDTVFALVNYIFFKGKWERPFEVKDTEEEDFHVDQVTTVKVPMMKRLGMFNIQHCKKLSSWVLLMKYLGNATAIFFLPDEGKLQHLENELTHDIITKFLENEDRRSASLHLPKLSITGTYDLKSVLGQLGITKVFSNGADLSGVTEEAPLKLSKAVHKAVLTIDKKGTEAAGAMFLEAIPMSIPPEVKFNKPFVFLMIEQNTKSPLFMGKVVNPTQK

Kd [1]: 37.6 nM
kon [1]: 33200 M⁻¹ s⁻¹
koff [2]: 0.00125 s⁻¹
B1: HL2440 (antibody, V domains shown)
VH: QVQLQQPGAELVKPGASVKMSCKASGYTFTSYWITWVKQRPGQGLEWIGDIYPGSGSTNYNEKFKNKATLTVDTSSSTAYMQLSSLTSEDSAVYYCAAAVKGFAYWGQGTLVTVSA
VL: DIVMTQSHKFMSTSVGDRVSITCKASQDVGTAVAWYQQKPGQSPKLLIYWASTRHTGVPDRFTGSGSGTDFTLTISNVQSEDLADYFCQQYSTYPLTFGSGTKLEIK
notes: Mouse monoclonal from a hybridoma, used as supernatant or purified; also called Z-specific antibody HL2440; ZAAT mAb

Reference: patent US20250208146A1 (UNIVERSITY OF FLORIDA RESEARCH FOUNDATION, published 2025)
